{"source": "paper PMC9388150", "about": "(Proceedings of the National Academy of Sciences of the …, 2022)", "key": {"[1]": {"molecular_target": "CeOSM-3^G444E (C. elegans) (UniProt P46873)", "sequence (P46873 whole entry G444E)": "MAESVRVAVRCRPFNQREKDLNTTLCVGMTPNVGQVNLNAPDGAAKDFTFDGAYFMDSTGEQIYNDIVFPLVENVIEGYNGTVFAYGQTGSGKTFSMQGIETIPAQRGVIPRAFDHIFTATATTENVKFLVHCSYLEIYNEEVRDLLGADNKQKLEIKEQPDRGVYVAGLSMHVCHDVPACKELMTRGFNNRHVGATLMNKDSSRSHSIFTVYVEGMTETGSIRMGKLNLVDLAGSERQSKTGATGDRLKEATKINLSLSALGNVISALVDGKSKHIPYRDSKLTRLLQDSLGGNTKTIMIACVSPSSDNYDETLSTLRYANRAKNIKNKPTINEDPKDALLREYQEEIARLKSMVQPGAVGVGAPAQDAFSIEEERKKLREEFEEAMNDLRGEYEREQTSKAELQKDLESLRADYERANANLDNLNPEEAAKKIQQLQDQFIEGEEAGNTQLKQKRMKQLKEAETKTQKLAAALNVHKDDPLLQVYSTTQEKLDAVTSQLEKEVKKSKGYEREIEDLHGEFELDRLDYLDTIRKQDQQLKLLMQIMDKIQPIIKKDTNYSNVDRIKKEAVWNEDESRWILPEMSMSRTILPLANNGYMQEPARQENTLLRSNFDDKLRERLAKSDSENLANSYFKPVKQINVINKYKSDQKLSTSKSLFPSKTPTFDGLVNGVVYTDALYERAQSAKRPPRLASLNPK"}, "[2]": {"molecular_target": "full-length TtKin5 kinesin-2 (T. thermophila) (UniProt Q7YUC7)"}, "SEC-MALS": {"molecular_target": "the molecule itself", "assay": "SEC-MALS"}}}
{"molecule": "CeIFT70/52 adaptor complex (from UniProt Q8I7G4 1-656)", "values": [{"measurement": "velocity of CeOSM-3^G444E with CeIFT70/52 in single-molecule transport assays", "setting": "[1]", "value": 1.7, "unit": "µm/s"}]}
{"molecule": "TtIFT70/52 adaptor complex", "values": [{"measurement": "velocity of TtKin5 with TtIFT70/52 in single-molecule transport assays", "setting": "[2]", "value": 2, "unit": "µm/s"}]}
{"molecule": "TtIFT70 (natural protein)", "values": [{"measurement": "velocity of TtKin5 with TtIFT70 in single-molecule transport assays", "setting": "[2]", "value": 1.5, "unit": "µm/s"}]}
{"molecule": "full-length TtKin5 kinesin-2 (natural protein, T. thermophila, UniProt Q7YUC7 1-836, looked up) MSSETVKVMVRARPMNKLEISKGCANIVQVDPQTNQIILSNGKDAEAAKVFTYDYVFPPDIQQQTVYENSAFPLVESVVEGYNGTIFAYGQTGCGKTHSMLGKPNDEVEKGIIPRTFSHIINIVESANDKNFLVRCSYIEIYNEEIHDLLGKDAKARMDLKEYPDKGVFVKDLTMNVVKTVAEMEKWMNIGTENRSVGATAMNKDSSRSHSIFTLYIECSYKVEGDTEDHITAGKLNLVDLAGSERQSKTQATGDRLKEATKINLSLSALGNVISALVDGKSQHVPYRDSKLTRLLQDSLGGNTKTIMIAAISPADYNYEETLSTLRYASRAKNIKNQPKVNQDPKDALLKEYADEIKKLKEMLLKQQAGEQVNFNAVVNGNGQQQPQLAIQHSSSHVMNSSEVKKLKEKNDALNAERQQIEEEVKNKEKLFQQQMQEKLMIEQKLKEVEQKFIVGGTADQDKKKKISQMRNKLKKQMQEHEKIQEELKQKDEEFENLEIKYSSLQEELDATKKKVKKLNQKYKQAQSEIKDLEKEHEIQKEDLLDTIRYQQREVKILMSICQMLLTPDEIEIIKGQGEWQDDYQVYKLPPFYFKQKKLNFPKLPAAQAMDMIDQEKQSREIDFMRQNNNFDNRQNNNHQNGNSHSHSNSIKRIPSGTMDNFEDMNKFQFGNGPAKSNNTSRYNNGFQNGSDEFDLSKYDAGGGNSLHSIQESLKEKNNSPNIRIKKAHKVQQQPEKQRIPNVSLDPIESQRISQQKLMGLQDSHFLEPSFQGGEQRRSKNIQLQPIQARPLSNSQTVMNLNQLNKNNINMNSIDFDQIANKTPNRVKLDKIQVPR", "values": [{"measurement": "stoichiometry N", "setting": "SEC-MALS", "value": 2}]}
